{
  "source": "patent US20250154517A1",
  "target": "NpuDnaE(C)_Hyg^R (90-341) (Nostoc punctiforme; Escherichia coli)",
  "assay": "cell-based or functional assay",
  "data": [
    {"substance": "Hyg^R(1-89)-NpuDnaE(N)", "values": [
      {"measurement": "rooting of co-transformed poplar shoots on root induction medium supplied with Hygromycin", "result": 80, "unit": "%"}
    ]}
  ]
}
